Source: US20060193771A1 (US Dept. of Health and Human Services, published 2006)

T1: CD30-Fc (human)
T1 construct: also called extracellular domain of CD30 fused with human IgG Fc
T1 chain: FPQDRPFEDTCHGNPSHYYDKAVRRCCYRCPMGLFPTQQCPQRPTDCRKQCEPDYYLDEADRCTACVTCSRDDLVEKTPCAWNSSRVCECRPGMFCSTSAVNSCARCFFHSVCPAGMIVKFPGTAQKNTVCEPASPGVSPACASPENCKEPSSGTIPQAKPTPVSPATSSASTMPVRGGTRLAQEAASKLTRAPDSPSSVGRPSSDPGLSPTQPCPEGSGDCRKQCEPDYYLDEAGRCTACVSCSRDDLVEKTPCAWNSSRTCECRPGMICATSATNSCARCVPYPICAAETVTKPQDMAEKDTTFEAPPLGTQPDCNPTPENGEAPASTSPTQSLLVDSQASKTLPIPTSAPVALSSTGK

T2: human CD30, native, expressed on cells (human)
T2 construct: also called native CD30; CD30 on L540, L428, A431/CD30, Karpas299, SUDHL-1 and other CD30-positive cells
T2 chain: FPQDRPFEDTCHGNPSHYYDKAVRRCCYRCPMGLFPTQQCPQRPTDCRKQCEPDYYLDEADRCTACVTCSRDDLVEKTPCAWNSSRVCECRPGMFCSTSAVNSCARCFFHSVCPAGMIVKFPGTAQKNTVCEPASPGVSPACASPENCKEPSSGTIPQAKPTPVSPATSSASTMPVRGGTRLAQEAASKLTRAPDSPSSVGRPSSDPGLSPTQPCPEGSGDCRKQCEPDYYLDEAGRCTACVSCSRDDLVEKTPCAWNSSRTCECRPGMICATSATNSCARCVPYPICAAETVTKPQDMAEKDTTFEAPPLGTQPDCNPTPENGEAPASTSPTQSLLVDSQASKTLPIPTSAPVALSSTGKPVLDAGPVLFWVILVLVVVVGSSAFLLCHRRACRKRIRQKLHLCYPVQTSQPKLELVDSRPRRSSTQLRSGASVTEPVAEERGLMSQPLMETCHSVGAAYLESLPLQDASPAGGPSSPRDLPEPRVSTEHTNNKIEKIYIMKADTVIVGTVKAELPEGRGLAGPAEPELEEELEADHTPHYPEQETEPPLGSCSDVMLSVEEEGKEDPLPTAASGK

T3: recombinant soluble CD30 (sCD30) produced in E. coli (human)
T3 construct: also called soluble CD30 made in E. coli; extracellular domain of CD30 with His-tag
T3 chain: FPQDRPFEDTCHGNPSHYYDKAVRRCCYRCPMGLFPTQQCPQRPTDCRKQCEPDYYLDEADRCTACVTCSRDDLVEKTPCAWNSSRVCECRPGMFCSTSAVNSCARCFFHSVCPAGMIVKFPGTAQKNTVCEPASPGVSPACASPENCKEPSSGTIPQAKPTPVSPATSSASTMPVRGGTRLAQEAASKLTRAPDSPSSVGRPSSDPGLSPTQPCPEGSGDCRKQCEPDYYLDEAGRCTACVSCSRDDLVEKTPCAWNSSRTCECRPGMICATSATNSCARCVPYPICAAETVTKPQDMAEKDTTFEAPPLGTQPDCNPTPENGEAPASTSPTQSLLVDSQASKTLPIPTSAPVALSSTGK


Experiments:
CD30-Fc [1] = biological target: T1, CD30-Fc; test: affinity of the MAb; ELISA using CD30-Fc
Protocol: (§1) In one type of ELISA (CD30-Fc ELISA), microtiter plates were coated with 25 ng/well of CD30-Fc. Culture supernatants of hybridoma were added to the coated wells, and bound MAbs were detected with HRP-labeled rat anti-mouse kappa chain monoclonal antibody. A different format of ELISA. Ig-trap ELISA, was also carried out. MAbs were captured by anti-mouse IgG coated on the plates, and then reacted with various concentrations of CD30-Fc in solution. The bound CD30-Fc was detected with HRP-labeled goat anti-human Fc antibody.
(§2) Determination of affinity: Each MAb was titered in the CD30-Fc ELISA described above and an appropriate dilution for each MAb was selected from the liner range of the titration curves. […] The free MAb concentration in each equilibrium reaction was measured by the same ELISA using standard curves. No re-equilibrium occurred during the ELISA because of the small amounts of coated CD30-Fc and the short time of incubation. The CD30-Fc concentration giving half free MAb was the Kd.

[2] = biological target: T2, human CD30, native, expressed on cells; test: competitive FACS on L540 cells, unlabeled MAb 2.5 µg/ml; competitor: biotin-T24
Protocol: (§3) These MAbs were further characterized for their topographical epitopes by a competitive binding assay using FACS analysis. […] Some of the MAbs were biotinylated as the indicators and incubated with L540 cells in the presence of various concentrations of unlabeled MAbs as the competitors.

[3] = biological target: T2, human CD30, native, expressed on cells; test: FACS, L540 cells, MAb 5 µg/ml, control HeFi-I
Protocol: (§4) FACS Analysis. FACS analysis was performed to measure the binding of the MAbs or immunotoxins to native CD30 expressed on various cell lines. […] After incubation for 1 h at 4° C., the cells were washed twice with the same buffer and incubated with FITC-labeled goat mouse IgG (BioSource). After washing, the cells were suspended in 1 ml of the buffer, and the fluorescence associated with the live cells was measured using a FACS Calibur flow cytometer (Beckman Coulter, Fullerton, Calif.).
(§5) The binding activity of the MAbs to native CD30 on cells was measured.

[4] = biological target: T2, human CD30, native, expressed on cells; test: competitive FACS on L540 cells, unlabeled MAb 2.5 µg/ml; competitor: biotin-T25
Protocol: as §3

[5] = biological target: T2, human CD30, native, expressed on cells; test: competitive FACS on L540 cells, unlabeled MAb 2.5 µg/ml; competitor: biotin-HeFi-I
Protocol: as §3

CD30-Fc [6] = biological target: T1, CD30-Fc; test: indirect ELISA, CD30-Fc coated
Protocol: (§6) ELISA. The binding of anti-CD30 MAbs to sCD30 and CD30-Fc was assayed by indirect ELISAs. Microtiter plates (Costar, Cambridge, Mass.) were coated with 20 ng/well of sCD30 or CD30-Fc in PBS overnight at 4° C. After blocking with 0.5% of BSA in PBS, hybridoma supernatants or purified MAbs were added to the coated wells and incubated for 2 h at room temperature. The bound MAbs were detected with alkaline phosphatase (ALP)-labeled anti-mouse IgG (BioSource, Camarillo, Calif.) and p-nitrophenyl phosphate as the substrate.

[7] = biological target: T2, human CD30, native, expressed on cells; test: FACS, L428 cells, MAb 5 µg/ml, control HeFi-I
Protocol: as §4, §5

[8] = biological target: T2, human CD30, native, expressed on cells; test: competitive FACS on L540 cells, unlabeled MAb 2.5 µg/ml; competitor: biotin-HRS-4
Protocol: as §3

[9] = biological target: T2, human CD30, native, expressed on cells; test: competitive FACS on L540 cells, unlabeled MAb 2.5 µg/ml; competitor: biotin-T14
Protocol: as §3

[10] = biological target: T2, human CD30, native, expressed on cells; test: competitive FACS on L540 cells, unlabeled MAb 2.5 µg/ml; competitor: biotin-T6
Protocol: as §4, §3

[11] = biological target: T3, recombinant soluble CD30 (sCD30) …; test: indirect ELISA, sCD30 coated
Protocol: as §6

CD30-Fc [12] = biological target: T1, CD30-Fc; test: ELISA using CD30-Fc (equilibrium in solution)
Protocol: as §1, §2

Binder | Kd (CD30-Fc [1]) | inhibition of the binding of biotin-MAb (%) [2] | relative reactivity in FACS (% of control) [3] | inhibition of the binding of biotin-MAb (%) [4] | inhibition of the binding of biotin-MAb (%) [5] | titer in ELISA (CD30-Fc [6]) | relative reactivity in FACS (% of control) [7] | inhibition of the binding of biotin-MAb (%) [8] | inhibition of the binding of biotin-MAb (%) [9] | inhibition of the binding of biotin-MAb (%) [10] | titer in ELISA [11] | Kd (CD30-Fc [12])
T405 MAb (antibody, V domains shown) VH: QVQLQQIGAELVRPGASVKLSCKASGYTFNNYWINWVKQRPGQGLEWIGNIYPSDSRSNYNQKFKDKATLTVDKPSSTAYMQLSSPTSEDSAVYYCTLGSYWGQGTLVTVSA VL: not shown | 5.7 nM |  |  |  |  |  |  |  |  |  |  | 
T408 MAb (antibody, V domains shown) VH: QVQLQQPGAELVRPGASVKLSCKASGYTFTSYWINWVKQRPGQGLEWIGNIYPSDSYSNYNQKFKDKATLTVDKSSSTAYMQLSSPTSEDSAVYYCTLGSYWGQGTLVTVSA VL: not shown | 6.4 nM |  |  |  |  |  |  |  |  |  |  | 
T13 MAb (antibody, V domains shown) VH: QVQLQQSGAELAKPGASVKMSCKASGYTFTTYWMHWVKQRPGQGLEWIGYINPSTGYTDYNEKFKDKATLTADKSSSTAYMQLSSLTSEDSAVYYCVRRGSYDGNPFAYWGQGTLVSVSA VL: DIVMTQSHKFMSTSVGDRVTITCKASQDVSTAVAWYQQKPGHSPKLLIYWASTRHTGVPDRFTGSGSGTDYTLTISSVQVEDLALYYCQQHYSTPFTFGSGTKLEIKR | 3.1 nM | 40.1% | 111 % of control | 26.7% | 0% | 91.2 mL/µg | 180 % of control | 82.6% | 108% | 87.4% | 87.7 mL/µg | 3.1 nM
T420 MAb (antibody, V domains shown) VH: QVQLQQSGAELAKPGASVKMSCKASGYTFTSYWMHWVKQRPGQDLEWIGYINPSTDYTDYNQKFKDKATLTADKSSSTAYMQLSSLTSEDSAVYYCATRHYGSSYGFAYWGQGTLVTVSA VL: DIVMTQSHKFMSTSVGDRVSITCKASQDVSTAVAWYQQKPGQSPKLLIYWASTRHTGVPDRFTGSGSGTDYSLTISSVQAEDLAVYYCQQHYRTPFTFGSGTKLEIKR | 1.9 nM |  |  |  |  |  |  |  |  |  |  | 1.9 nM
T201 MAb (antibody, V domains shown) VH: QVQLKESGPGLVAPSQSLSITCTVSGFSLIDYGVSWVRQPPGKGLEWLGMIWGDGNTDYNSGLKSRLSISKDNSKSQVFLKVNSLQTDDTARYYCARPSTGTLFAYWGQGTLVTVSA VL: EIVLTQSPTTMAASPGERITFTCSASSGISSIYLHWYQQKPGFSPKLLIYRTSNLASGVPPRFSGSGSGTSYSLTIGTMEAEDVATYYCQQGSSIPLTFGAGTKLELKR | 8.3 nM |  |  |  |  |  |  |  |  |  |  | 
T6 MAb (antibody, V domains shown) VH: QVQLKESGPGLVTPSQSLSITCTVSGFSLSKYSIHWVRQPPGRGLEWLGMIWGVENTDYNSALKSRLSISKDNSKSQVFLKMNSLQSDDTAMYYCARKDLGLYGMNYWGQGISVTVSA VL: DIVMTQSQKFMSTSVGDRVSVTCKASQNVGTNVAWYQQKPGQSPKALFYSASYRYSGVPDRFIGSGSGTVFTLTISNVQSEDLAEYFCQQYNTYPLTFGSGTKLEIER | 13 nM | 3.9% | 111 % of control | 25% | 0% | 40 mL/µg | 140 % of control | 97.9% | 108% | 100% | 74.1 mL/µg | 13 nM
T105 MAb (antibody, V domains shown) VH: QVTLKESGPGILQPSQTLSLTCSFSGFSLSTSGMGVSWIRQPSGKDLEWLAHIYWDDDKRYNPSLKSRLTISKDTSSNQVFLKITSVDTADTATYYCARRADGLYFYLDVWGAGTTVTVSS VL: DIVMTQSQKFMSTSVGDRVSVTCKASQNVNTNVAWYQQKPGQSPEALIYSASYRYSGVPDRFTGSGSGTDFTLTISNVQSEDLAEYFCQQYNSYPLTFGSGTKLEIKR | 4.2 nM |  |  |  |  |  |  |  |  |  |  | 4.2 nM
T25 MAb (antibody, V domains shown) VH: QVTLKESGPGILQPSQTLSLTCSFSGFSLNTSGVGVGWIRQPSGKGLEWLAHIWWDDDERYNPVLKSRLTISKDTSSNQVFLKIANVDTADSATYYCVRSMVAWFPYWGRGTLVTVSA VL: DIVMSQSPSSLAVSVGEKFTVNCKSSQSLLYSSNQKNFLAWYQQKPGQSPKLLIYWASTRESGVPDRFIGSGSGTDFTLTISSVKAEDLAVYYCQQHYRYPWTFGGGTKLEIKR | 6.4 nM | 0% | 27.8 % of control | 79.8% | 0% | 50 mL/µg | 80 % of control | 0% | -1.3% | 1.5% | 135 mL/µg | 6.4 nM
T24 MAb (antibody, V domains shown) VH: QVQLQQPGAELVRPGASVKLSCKASGYSFTSYWIDWVKQRPGQGLEWIGNIYPSNAYTNYNQKFKDKATLTVDKSSSTAYMQLSSPTSEDSAVYYCTSVLDYFYAMDYWGQGTSVTVSS VL: DIQMTQTTSSLSASLGDRVTISCRASQDISNYLNWYQQKPDGTVKLLIYYTSRLHSGVPSRFSGSGSGTDYSLTISNLEQEDIATYFCQQVNTLPRTFGGGTKLEIKR | 2.2 nM | 82.8% | 117 % of control | 97.8% | 79.8% | 179 mL/µg | 160 % of control | 52.2% | 16.1% | 1.5% | 102 mL/µg | 2.2 nM
T427 MAb (antibody, V domains shown) VH: QVQLQQPGTELVRPGASVKLSCKASGFSFTSYWMNWVKQRPGQGLEWIGMIHPSDSETRLNQKFKDRATLTVDKSSSTAYMQLSSPTSEDSAVYYCASEMDYYFAMDYWGQGTSVTVSS VL: DIVLTQSPTSLAVSLGQRATISCRASESVDSYGNSFMHWFQQKPGQPPKLLIYRASNLESGIPARFSGSGSWTDFTLTINPVEADDVATYYCQQSNEDPRTFGGGTKLEIKR | 0.9 nM |  |  |  |  |  |  |  |  |  |  | 
